B1: Ktr system potassium uptake protein B (Bacillus subtilis), O32081 (parent)
chain: MTLQKDKVIKWVRFTPPQVLAIGFFLTIIIGAVLLMLPISTTKPLSWIDALFTAASATTVTGLAVVDTGTQFTVFGQTVIMGLIQIGGLGFMTFAVLIVMILGKKIGLKERMLVQEALNQPTIGGVIGLVKVLFLFSISIELIAALILSIRLVPQYGWSSGLFASLFHAISAFNNAGFSLWPDNLMSYVGDPTVNLVITFLFITGGIGFTVLFDVMKNRRFKTFSLHTKLMLTGTLMLNAIAMLTVFILEYSNPGTLGHLHIVDKLWASYFQAVTPRTAGFNSLDFGSMREGTIVFTLLLMFIGAGSASTASGIKLTTFIVILTSVIAYLRGKKETVIFRRSIKYPIIIKALAVSVTSLFIVFLGIFALTITEQAPFLQIVFETFSAFGTVGLTMGLTPELTTAGKCIIIVIMFIGRIGPLTFVFSFAKTEQSNIRYPDGEVFTG
partner: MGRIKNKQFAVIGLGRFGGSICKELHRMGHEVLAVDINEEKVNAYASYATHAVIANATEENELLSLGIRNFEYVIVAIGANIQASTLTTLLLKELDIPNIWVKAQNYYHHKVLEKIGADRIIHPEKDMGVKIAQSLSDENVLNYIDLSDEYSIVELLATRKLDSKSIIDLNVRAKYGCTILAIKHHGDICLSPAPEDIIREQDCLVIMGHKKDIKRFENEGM

Variants of: B1
Conditions: with ktra_bacsu ktrA
In the case of L108A, the “effect of a mutation on the interaction” value is reported as “decreasing interaction strength”.

— IntAct's records for PubMed 23598340
